Here are results for one molecule from patent publication US9074002B2, “PTP1B inhibitors” (Cold Spring Harbor Laboratory, priority 2009, dated 2015).

Assay [1] concerns phosphorylation of AKT activation loop at Threonine 308 (T308). Nature of the assay: AKT phosphorylation (T308) after insulin stimulation in cells overexpressing scFv45. It counts as cell-based. Conditions: cells overexpressing scFv45, insulin stimulated for different time periods; FIG. 13. The source says:
Applicant assessed the role of PTP1B-OX specific intrabody on the downstream readout of insulin signaling by following the phosphorylation (activation) status of AKT.

Assay [2] relates to endogenous PTP1B in Cos1 cells. As to the kind of experiment: Colocalization of intrabody45 and PTP1B in Cos1 cells by immunofluorescence. In kind it is cell-based. Conditions: FIG. 14. The protocol:
In order to verify the interaction between PTP1B-OX and scFv45 in mammalian cells, Applicant determined whether PTP and scFv45 colocalized after insulin stimulation, using immunofluorescence. Cos1 cells were grown on cover slips and transfected with scFv45 using Fugene6 as the transfection reagent according to manufacturer's instructions. The cells were serum starved 24 hours post transfection, for 16 hours at 37° C. and then stimulated with 25 nM insulin (in growth medium without serum) or left untreated. Following insulin treatment the cells were washed 2× with PBS and fixed with 5% formalin (in PBS) for 15 minutes at room temperature. The cells were washed with PBS three times at room temperature. The fixed cells were permeabilized with 0.5% Triton-X100 (in PBS) for 5 minutes at room temperature. Cells were rinsed with Wash Buffer [PBS, pH 7.4 with 0.1% BSA, 0.2% TritonX-100, 0.05% Tween-20 and 0.05% sodium azide] at room temperature. […] To quantify colocalization of PTP1B and intrabody45 from the merged images, 15 individual images were analyzed by Zeiss (LSM 710) Colocalization Viewer Software. The degree of colocalization of PTP1B and intrabody45 in each cell was expressed as colocalization coefficients that measure relative number of colocalizing pixels for the respective fluorophores for PTP1B and intrabody45, as compared to the total number of pixels. […]

B1: scFv45: conformation-sensor scFv binding PTP1B-OX, SEQ ID NO: 26 and 78; expressed as intrabody (protein)
scFv: MKKTAIAIAVALAGFATVAQAALTQPSSVSANPGGTVKITCSGSSSAYGYGWYQQKSPGSAPVTVIYNNNKRPSNIPSRFSGSKSGSTGTLTITGVQAEDEAVYFCGSEDSSTDAIFGAGTTLTVLGQSSRSSTVTLDESGGGLQAPGGALSLVCKASGFTFSSYDMGWIRQAPGKGLEYVAGITDNGRYASYGSAVDGRATISRDNGQSSVRLQLNNLRAEDTGTYYCARDDGSGWTGNSIDAWGHGTEVIVSSTSGQAGQHHHHHHGAYPYDVPDYAS
Regarding B1, the “AKT phosphorylation at residue Threonine 308 (T308)” value in assay [1] is “enhanced and sustained AKT phosphorylation”. Also, the “colocalization between PTP1B and intrabody” value in assay [2] (Cos1 cells without insulin stimulation) is on record as “not significant”; in assay [2] (Cos1 cells, stimulated with 25 nM insulin), “Strong colocalization”.
